Source: article PMC5704485, “A unique cysteine-rich zinc finger domain present in a majority of class II ribonucleotide reductases mediates catalytic turnover” (The Journal of Biological Chemistry, 2017)
Values joined by “and” are separate entries in the source; they are usually repeats but may differ in a detail not shown here. Identical values can stand only once.

How the values were obtained:
[1] = molecular target: T1, NrdJd-wt (Snas 4560), full-length class II RNR (Stackebrandtia nassauensis, UniProt D3Q6G1); experiment: effector titration of NDP reductase activity, HPLC; assay type: biochemical; settings: half-maximal activation by allosteric effector, AdoCbl
T1 construct: gene Snas_4560; monomer/dimer, tetramer/hexamer with dATP or dGTP
T1 sequence (D3Q6G1 1-946): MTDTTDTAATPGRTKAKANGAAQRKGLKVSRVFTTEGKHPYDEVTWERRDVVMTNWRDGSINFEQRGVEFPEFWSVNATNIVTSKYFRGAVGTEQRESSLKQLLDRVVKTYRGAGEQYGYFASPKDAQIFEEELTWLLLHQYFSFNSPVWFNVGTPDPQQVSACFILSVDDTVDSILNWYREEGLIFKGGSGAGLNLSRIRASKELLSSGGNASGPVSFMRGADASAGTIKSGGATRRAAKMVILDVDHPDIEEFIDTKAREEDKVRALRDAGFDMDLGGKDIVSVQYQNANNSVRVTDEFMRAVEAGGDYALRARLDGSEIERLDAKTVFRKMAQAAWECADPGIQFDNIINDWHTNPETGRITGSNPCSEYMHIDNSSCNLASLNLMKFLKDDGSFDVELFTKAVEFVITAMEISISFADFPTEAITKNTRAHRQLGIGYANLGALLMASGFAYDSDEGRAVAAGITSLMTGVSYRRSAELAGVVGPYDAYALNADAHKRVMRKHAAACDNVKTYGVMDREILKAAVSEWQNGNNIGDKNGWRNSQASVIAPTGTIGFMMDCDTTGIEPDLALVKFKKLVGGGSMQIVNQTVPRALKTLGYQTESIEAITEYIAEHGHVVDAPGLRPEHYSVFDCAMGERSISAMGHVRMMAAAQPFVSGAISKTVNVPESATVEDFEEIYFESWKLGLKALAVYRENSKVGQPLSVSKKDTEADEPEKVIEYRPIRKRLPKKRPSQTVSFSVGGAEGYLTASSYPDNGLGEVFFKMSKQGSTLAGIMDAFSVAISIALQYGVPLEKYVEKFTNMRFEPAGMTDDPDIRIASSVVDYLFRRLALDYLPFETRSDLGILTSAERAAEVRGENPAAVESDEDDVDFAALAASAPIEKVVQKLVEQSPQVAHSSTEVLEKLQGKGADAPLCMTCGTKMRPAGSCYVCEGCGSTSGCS

NrdJdΔCRD = molecular target: T2, NrdJdΔCRD (Stackebrandtia nassauensis, UniProt D3Q6G1); experiment: effector titration of NDP reductase activity, HPLC; assay type: biochemical; settings: half-maximal activation by allosteric effector; range printed for all effectors together; single preferred NDP substrate; AdoCbl; Tris pH 8.0, 20 mM MgCl2, 50 mM DTT, room temperature
T2 construct: gene Snas_4560; catalytic domain, residues 1-714 (codon 715 replaced by stop), C-terminal cysteine-rich domain removed; mainly monomer

[2] = molecular target: NrdJd-wt, the full-length version of the Stackebrandtia nassauensis class II ribonucleotide reductase (Stackebrandtia nassauensis); experiment: GEMMA (gas phase electrophoretic macromolecule analysis); 0.075 mg/ml NrdJd-wt with dGTP (100 μM, and a titration of dGTP), equimolar MgCl2; 40 mM ammonium acetate pH 7.8, 0.005% Tween 20, 0.2 mM DTT
[3] = molecular target: NrdJd-wt, the full-length version of the Stackebrandtia nassauensis class II ribonucleotide reductase (Stackebrandtia nassauensis); experiment: SEC; analytical SEC, Superdex 200 Increase 3.2, 25 μl of 1.0 mg/ml protein, 50 mM Tris pH 7.5, 300 mM NaCl, 1 mM DTT, in the presence or absence of 100 μM effector (dATP)
[4] = molecular target: NrdJd-wt, the full-length version of the Stackebrandtia nassauensis class II ribonucleotide reductase (Stackebrandtia nassauensis); experiment: GEMMA (gas phase electrophoretic macromolecule analysis); 0.075 mg/ml NrdJd-wt with dATP (100 μM, and a titration of dATP), equimolar MgCl2; 40 mM ammonium acetate pH 7.8, 0.005% Tween 20, 0.2 mM DTT
[5] = molecular target: NrdJd-wt, the full-length version of the Stackebrandtia nassauensis class II ribonucleotide reductase (Stackebrandtia nassauensis); experiment: GEMMA (gas phase electrophoretic macromolecule analysis); 0.075 mg/ml NrdJd-wt with dCTP, equimolar MgCl2; 40 mM ammonium acetate pH 7.8, 0.005% Tween 20, 0.2 mM DTT
[6] = molecular target: NrdJd-wt, the full-length version of the Stackebrandtia nassauensis class II ribonucleotide reductase (Stackebrandtia nassauensis); experiment: GEMMA (gas phase electrophoretic macromolecule analysis); 0.075 mg/ml NrdJd-wt, no effector; 40 mM ammonium acetate pH 7.8, 0.005% Tween 20, 0.2 mM DTT
[7] = molecular target: NrdJd-wt, the full-length version of the Stackebrandtia nassauensis class II ribonucleotide reductase (Stackebrandtia nassauensis); experiment: GEMMA (gas phase electrophoretic macromolecule analysis); 0.075 mg/ml NrdJd-wt with 100 μM dTTP, equimolar MgCl2; 40 mM ammonium acetate pH 7.8, 0.005% Tween 20, 0.2 mM DTT
[8] = molecular target: T1, NrdJd-wt (Snas 4560), full-length class II RNR; experiment: GEMMA oligomerization titration; assay type: binding; settings: effector-induced tetramer/hexamer formation; 0.075 mg/ml protein; 40 mM ammonium acetate pH 7.8, equimolar MgCl2; possible further nucleotide site
[9] = molecular target: T3, C933A/C370A mixture (mutant mix) of NrdJd (Stackebrandtia nassauensis, UniProt D3Q6G1, C370A/C933A); experiment: effector titration of CDP reductase activity, HPLC; assay type: biochemical; settings: half-maximal activation by allosteric effector; equimolar mixture of two single mutants; substrate CDP; reductant TCEP; AdoCbl; standard assay Tris pH 8.0, 20 mM MgCl2, room temperature
T3 construct: gene Snas_4560; equimolar mixture of two separately purified full-length single mutants (not a double mutant)

[10] = molecular target: NrdJdΔCRD, the C-terminally deleted version of the S. nassauensis class II ribonucleotide reductase (Stackebrandtia nassauensis); experiment: GEMMA (gas phase electrophoretic macromolecule analysis); 0.025 mg/ml NrdJdΔCRD, with or without 100 μM effector (dATP); 40 mM ammonium acetate pH 7.8, 0.005% Tween 20, 0.2 mM DTT
[11] = molecular target: S. nassauensis NrdJd C933A, C-terminal (CRD) mutant (Stackebrandtia nassauensis)
[12] = single preferred NDP substrate (not given), Tris pH 8.0, 20 mM MgCl2, 50 mM DTT (standard conditions), room temperature, upper limit sta

T3 sequence (D3Q6G1 entry or part of it C370A): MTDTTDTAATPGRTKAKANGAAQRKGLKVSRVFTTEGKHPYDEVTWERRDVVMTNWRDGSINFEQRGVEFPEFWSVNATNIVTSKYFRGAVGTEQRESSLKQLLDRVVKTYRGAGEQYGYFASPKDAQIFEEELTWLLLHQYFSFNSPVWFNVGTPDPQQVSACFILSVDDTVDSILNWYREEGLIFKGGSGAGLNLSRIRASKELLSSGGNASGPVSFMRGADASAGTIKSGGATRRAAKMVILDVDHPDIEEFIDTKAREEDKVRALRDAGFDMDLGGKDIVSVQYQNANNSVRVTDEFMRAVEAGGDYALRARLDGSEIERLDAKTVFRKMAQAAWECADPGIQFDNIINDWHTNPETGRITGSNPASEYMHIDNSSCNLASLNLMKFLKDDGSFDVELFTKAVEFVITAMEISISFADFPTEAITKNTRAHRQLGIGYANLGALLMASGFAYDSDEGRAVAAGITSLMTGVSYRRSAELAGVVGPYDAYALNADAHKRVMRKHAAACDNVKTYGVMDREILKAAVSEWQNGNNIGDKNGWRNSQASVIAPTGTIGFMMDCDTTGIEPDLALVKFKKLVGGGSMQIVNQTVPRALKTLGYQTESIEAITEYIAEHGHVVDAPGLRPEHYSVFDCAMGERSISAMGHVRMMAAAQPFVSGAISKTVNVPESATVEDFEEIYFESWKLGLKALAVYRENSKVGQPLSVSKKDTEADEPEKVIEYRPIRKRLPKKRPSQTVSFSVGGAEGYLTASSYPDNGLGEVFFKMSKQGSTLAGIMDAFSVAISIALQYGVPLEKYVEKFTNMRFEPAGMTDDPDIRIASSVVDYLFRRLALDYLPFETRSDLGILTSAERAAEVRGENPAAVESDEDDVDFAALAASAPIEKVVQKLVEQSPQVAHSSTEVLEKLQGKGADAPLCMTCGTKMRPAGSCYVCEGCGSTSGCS
T3 sequence (D3Q6G1 entry or part of it C933A): as the sequence (D3Q6G1 entry or part of it C370A) above, with A370C, C933A counted along it

In the case of `Nc1ncnc2c1ncn2[C@@H]1O[C@H](COP(=O)(O)OP(=O)(O)OP(=O)(O)O)[C@@H](O)[C@H]1O` [ATP], the EC50 [1, 12] is reported as less than 4 µM and the KL (NrdJdΔCRD) is reported as “the affinity of the C-terminal truncated enzyme toward each tested effector is reduced”.

“NrdJd-wt, the full-length version of the Stackebrandtia nassauensis class II ribonucleotide reductase (enzyme)” was tested, and the stoichiometry N [2] was 4 and 6, the stoichiometry N [3] was 4 and the stoichiometry N [4] was 4 and 6. For the same compound, the stoichiometry N [5] was 2, the stoichiometry N [6] was 2 and the stoichiometry N [7] was 2.

For `Cc1cn([C@H]2C[C@H](O)[C@@H](COP(=O)(O)OP(=O)(O)OP(=O)(O)O)O2)c(=O)[nH]c1=O` [dTTP], the EC50 [1, 12] was less than 4 µM.

In the case of `Nc1ncnc2c1ncn2[C@H]1C[C@H](O)[C@@H](COP(=O)(O)OP(=O)(O)OP(=O)(O)O)O1` [dATP], the “concentration with half the enzyme as tetramer or hexamer” value [8] is reported as ~ 17 μmol liter^−1, the EC50 ([1]; substrate CDP, reductant TCEP, standard assay Tris pH 8.0, 20 mM MgCl2, room temperature) is reported as less than 4 µM and the EC50 [9] is reported as 15 ± 4.5 µM.

Compound “NrdJdΔCRD, the C-terminally deleted version of the S. nassauensis class II ribonucleotide reductase (domain or fragment)” has a stoichiometry N [10] of 2.

In the case of “S. nassauensis NrdJd C370A, active site cysteine-deficient mutant (enzyme)”, the RNR activity of the C933A/C370A mixture, substrate/effector GDP/dTTP (dimers only), TCEP as reductant, dTTP titrated 4 to 1000 μM, relative to NrdJd-wt (3 to 7%) (% of NrdJd-wt) [11] is reported as 3 to 7 and the Vmax of RNR activity of the C933A/C370A mixture, substrate/effector CDP/dATP (tetramers and hexamers), TCEP as reductant, relative to NrdJd-wt (% of the wild type) [11] is reported as 30.

In the case of `Nc1nc2c(ncn2[C@H]2C[C@H](O)[C@@H](COP(=O)(O)OP(=O)(O)OP(=O)(O)O)O2)c(=O)[nH]1` [dGTP], the EC50 [1, 12] is reported as less than 4 µM.

`Nc1ccn([C@H]2C[C@H](O)[C@@H](COP(=O)(O)OP(=O)(O)OP(=O)(O)O)O2)c(=O)n1` [dCTP] was tested, and the EC50 [1, 12] was less than 4 µM.
